Reference: patent US9394352B2, “Immunogenic POTE peptides and methods of use” (The United States of America, as represented by the …, priority 2010, dated 2016)

Tests used:
HLA-A2 molecule = molecular target: T1, HLA-A2 molecule (Homo sapiens, UniProt P04439, D140Y/D185E/D98H/E176V/E277Q/G131W/G231S/I119V/I121R/I166T/I218V/L300P/L318F/N151K/N90K/P208A/P217A/Q86G/Q94H/R138H/R169H/T345S); experiment: T2 binding assay (HLA-A2 up-regulation on TAP-deficient T2 cells); details: for FI0.5: peptide concentration that increases HLA-A2.1 expression by 50% over no peptide
T1 construct: The T2 cell line is deficient for TAP1 and TAP2 transporter proteins and expresses low levels of HLA-A2; endogenous in cells; host or cells: T2 cell line (TAP1/TAP2-deficient)
Method: FIG. 1 is a graph showing binding affinity of POTE peptides to HLA-A2 molecules. Peptides were dissolved in DMSO in double-distilled water and different concentrations of peptides were added into the culture of TAP-deficient T2 cells. After overnight culture of the cells in medium supplemented with β2-microglobulin, cells were stained with anti-HLA-A2. HLA-A2 expression was quantified as fluorescence index (FI) according to the following formula: FI=[(mean fluorescence intensity with peptide−mean fluorescence intensity without peptide)/mean fluorescence intensity without peptide]. Background fluorescence without BB7.2 was subtracted for each individual value. To compare the different peptides, FI0.5 (the peptide concentration that increases HLA-A2.1 expression by 50% over no peptide control background) was calculated from the titration curve for each peptide.
FIGS. 2A-2C are graphs showing binding affinity of substituted POTE peptides to HLA-A2 molecules. Shown are binding affinities of the substituted POTE 252 peptides (FIG. 2A), the substituted POTE 553 peptides (FIG. 2B) and the substituted POTE 323 peptides (FIG. 2C) to HLA-A2 molecules. Different concentrations of peptides were added into the culture of TAP-deficient T2 cells. After overnight culture of the cells in medium supplemented with β2-microglobulin, cells were stained with anti-HLA-A2 antibody.
Peptide binding capacity to the HLA-A2 molecule was measured by using the T2 cell line according to a protocol described previously (Peters et al., Bioinformatics 19(14):1765-1772, 2003). T2 cells (3×10^5 cells/well) were incubated overnight in 96-well plates with culture medium (1:1 mixture of RPMI 1640/Eagle-Hank's amino acid containing 2.5% fetal bovine serum, 100 U/ml penicillin, and 100 μg/ml streptomycin) with 10 μg/ml β2-microglobulin (Sigma) and different titrated concentrations of peptides (starting from 100 μM with 2-fold serial dilution) as shown in the figures to determine the concentration giving a 50% increasing in binding. Cells were washed once with cold HBSS containing 0.1% BSA and incubated for 30 minutes at 4° C. with anti-HLA-A2.1 BB7.2 monoclonal antibody (1:40 dilution from hybridoma supernatant). After washing, cells were stained with FITC-labeled goat anti-mouse immunoglobulin (BD, San Jose, Calif.), and the level of HLA expression was measured by flow cytometry. HLA-A2 expression was quantified as fluorescence index (FI) according to the following formula: FI=[(geometric mean fluorescence intensity with peptide-geometric mean fluorescence intensity without peptide)/geometric mean fluorescence intensity without peptide]. Background fluorescence without BB7.2 was subtracted for each individual value. To compare the different peptides, FI0.5, the peptide concentration that increases HLA-A2.1 expression by 50% over no peptide control background, was calculated from the titration curve for each peptide.

[1] = tested on: C1R.AAD cells pulsed with peptide; experiment: 4-hour 51Cr release CTL assay after one week in vitro stimulation; type: cell-based, human; details: CTLs from immunized AAD mice, restimulated 7 days with 1.0 μM peptide; targets pulsed with 1.0 μM peptide
Method: FIGS. 3A and 3B are graphs showing immunogenicity of the wild type and enhanced POTE 252 epitopes in AAD mice. AAD mice were immunized subcutaneously with a mixture of peptide and cytokines in adjuvant as described in Example 1. (FIG. 3A) Two weeks after the second boost, splenocytes pooled from three mice were restimulated with splenocytes of naïve AAD mice pulsed with 1.0 μM of each peptide at different effector to target (E/T) ratios. Cells were cultured in anti-mouse IFN-γ antibody coated ELISPOT™ plates. After overnight culture, biotinylated anti-mouse IFN-γ antibodies were added to each well. ELISPOT™ substrates were added to develop the color and spots were counted by an ELISPOT™ reader (AID ELISPOT™ reader system). Figures show numbers of spots per million cells. (FIG. 3B) CTL cross-reactivity on each peptide. Two weeks after the second boost, pooled spleen cells from three mice were restimulated with irradiated splenocytes pulsed with 1.0 μM of peptide for 7 days. In a 4-hour ^51Cr release assay, CIR.AAD cells were pulsed with 1.0 μM of peptide and labeled with ^51Cr. After washing three times, target cells were mixed with different numbers of effector cells and then cultured for 4 hours before harvesting.
FIGS. 4A-4D are graphs showing immunogenicity of the wild type and enhanced POTE 553 epitopes in AAD mice. AAD mice were immunized subcutaneously with a mixture of peptide and cytokines in adjuvant. (FIGS. 4A and 4B) Two weeks after the second boost, splenocytes pooled from three mice were restimulated with splenocytes of naïve AAD mice pulsed with 10 nM to 1.0 μM of each peptide at different E/T ratios. Cells were cultured in anti-mouse IFN-γ antibody coated ELISPOT™ plates. After overnight culture, biotinylated anti-mouse IFN-γ antibodies were added to each well. ELISPOT™ substrates were added to develop color and spots were counted by an ELISPOT™ reader (AID ELISPOT™ reader system). Figures show numbers of spots per million cells. (FIGS. 4C and 4D) CTL cross-reactivity on each peptide. Two weeks after the second boost, pooled spleen cells from three mice were restimulated with irradiated splenocytes pulsed with 1.0 μM of peptide for 7 days. In a 4-hour ^51Cr release assay, CIR.AAD cells were pulsed with 1.0 μM of peptide and labeled with ^51Cr. After washing three times, target cells were mixed with different numbers of effector cells and then cultured for 4 hours before harvesting.
FIGS. 5A and 5B are graphs showing immunogenicity of the POTE 272 epitope in AAD mice. AAD mice were immunized subcutaneously with a mixture of peptide and cytokines in adjuvant. (FIG. 5A) Two weeks after the second boost, splenocytes pooled from three mice were restimulated with splenocytes of naïve AAD mice pulsed with 1.0 μM POTE 272 peptide at different E/T ratios. Cells were cultured in anti-mouse IFN-γ antibody coated ELISPOT™ plates. After overnight culture, biotinylated anti-mouse IFN-γ antibodies were added in each well. ELISPOT™ substrates were added to develop color and spots were counted by an ELISPOT™ reader (AID ELISPOT™ reader system). Figures show numbers of spots per million cells. (FIG. 5B) CTL reactivity on POTE 272 peptide. Two weeks after the second boost, pooled spleen cells from three mice were restimulated with irradiated splenocytes pulsed with 1.0 μM POTE 272 peptide for 7 days. In a 4-hour ^51Cr release assay, CIR.AAD cells were pulsed with 1.0 μM POTE 272 peptide and labeled with ^51Cr. After washing three times, target cells were mixed with different numbers of effector cells and then cultured for 4 hours before harvesting.
FIGS. 6A and 6B are graphs showing immunogenicity of the wild type and enhanced POTE 323 epitopes in AAD mice. AAD mice were immunized subcutaneously with a mixture of peptide and cytokines in adjuvant. (FIG. 6A) Two weeks after the second boost, splenocytes pooled from three mice were restimulated with splenocytes of naïve AAD mice pulsed with 1.0 μM of each peptide at different E/T ratios. […]

KLMAKALLL [POTE 252-260, unmodified 9-mer peptide, residues 252-260 of human POTE]
binding affinity for the HLA-A2 molecule (in words) (HLA-A2 molecule; T2 binding assay): intermediate binders | FI0.5 (HLA-A2 molecule; substituted peptides and their wild types, Table 2 / FIGS. 2A-2C): 1.5 µM | FI0.5 (HLA-A2 molecule; wild-type peptides, Table 1 / FIG. 1): ~1.6 µM | CTL lysis of peptide-pulsed target cells [1]: lysed target cells pulsed with the wild-type POTE 252 as well as POTE 252-9V
